Laboratory results from the supplement of paper PMC10899765.

Assays:
Settings in all cases: 20 nM; 72 h
[1] = tested on: MCF10A; experiment: percent viability (nuclei count relative to siNT); higher = more viable cells
Experimental: (§1)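 After 72 h, cells were fixed and stained with Hoechst and anti-fibrillarin, and nucleoli per nucleus were counted with CellProfiler. Values are plate-adjusted percent effect for the one-nucleolus and 5+ nucleoli phenotypes, normalised to siNT (0%) and to the positive controls siNOL11 or siKIF11 (100%), as the mean of biological triplicates. Percent viability is the nuclei count relative to siNT.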

[2] = tested on: MCF10A; experiment: 5+ nucleoli phenotype percent effect (relative to siNT 0% and siKIF11 100%); higher = more cells with five or more nucleoli
Experimental: as §1

[3] = tested on: MCF10A; experiment: one-nucleolus phenotype percent effect (relative to siNT 0% and siNOL11 100%); higher = more cells with one nucleolus (ribosome biogenesis inhibition)
Experimental: as §1

Sequence | percent viability [1] [%] | 5+ nucleoli phenotype percent effect [2] [%] | one-nucleolus phenotype percent effect [3] [%]
UGGGGAGGUGUGGAGUCAGCAU [hsa-miR-6825-5p] | 22.4 | 1.61 | 37.7
GGGAGGUGUGAUCUCACACUCG [hsa-miR-3689d] | 9.66 | 10.8 | 24.8
UCAGUUCCAGGCCAACCAGGCU [hsa-miR-584-3p] | 43.9 | 3.58 | 19.6
UGGGGGGACAGAUGGAGAGGACA [hsa-miR-6887-5p] | 22.6 | -8.17 | 22.8
UAUGCAUUGUAUUUUUAGGUCC [hsa-miR-586] | 94.9 | 54 | -12.9
UGGAGAUCCAGUGCUCGCCCGAU [hsa-miR-4683] | 56.7 | -20.1 | 24.4
UAAUCCUUGCUACCUGGGUGAGA [hsa-miR-500a-5p] | 55 | -16.1 | 19.3
UAUGUGGGAUGGUAAACCGCUU [hsa-miR-299-3p] | 45.6 | -20.9 | 13.9
CGCAGGGCCCUGGCGCAGGCAU [hsa-miR-6836-5p] | 37.7 | -6.59 | 28.5
CUAAUAGUAUCUACCACAAUAAA [hsa-miR-633] | 107 | 35.1 | -23.4
UCUGGCUGUGCUGUAAUGCAG [hsa-miR-6504-5p] | 54.2 | -5.01 | 6.53
CUGCCAGCCCCGUUCCAGGGCA [hsa-miR-3972] | 42.9 | -1.63 | -2.85
AAACAAACAUGGUGCACUUCUU [hsa-miR-495-3p] | 93.6 | -10.6 | 5.47
AAAGUAGCUGUACCAUUUGC [hsa-miR-562] | 83.9 | 57 | -28.9
UUGAAAGGCUAUUUCUUGGUC [hsa-miR-488-3p] | 36.8 | -44.7 | 39.9
CGUGUUCACAGCGGACCUUGAU [hsa-miR-124-5p] | 77.3 | -28.6 | 6.24
AGGUUGACAUACGUUUCCC [hsa-miR-563] | 70.5 | 46.2 | -18
UGGGGUGCCCACUCCGCAAGUU [hsa-miR-4664-5p] | 9.8 | -17.8 | 23.6
UGUGACUGCAUUAUGAAAAUUCU [hsa-miR-3118] | 26.7 | 5.27 | 20.9
UUGUGCUUGAUCUAACCAUGU [hsa-miR-218-5p] | 151 | 35.8 | -8.63

Sequence | percent viability [1] [%] | 5+ nucleoli phenotype percent effect [2] [%] | one-nucleolus phenotype percent effect [3] [%]
CGCUUUGCUCAGCCAGUGUAG [hsa-miR-1251-3p] | 76.2 | -13.1 | 18.6
AAAAUGAAAUGAGCCCAGCCCA [hsa-miR-3646] | 63.5 | 21.9 | -19.1
UGACGCCCCUUCUGAUUCUGCCU [hsa-miR-6786-3p] | 50.9 | -4.1 | 0.306
CGCGCCUGCAGGAACUGGUAGA [hsa-miR-6720-3p] | 57.7 | 71.3 | -13.6
AUUUGUGCUUGGCUCUGUCAC [hsa-miR-2113] | 98.6 | 9.63 | -12.4
GUGACUGAUACCUUGGAGGCAU [hsa-miR-4439] | 56.4 | -27.6 | -2.03
UCUGUGAUAGAGAUUCUUUGCU [hsa-miR-4679] | 103 | 8.51 | -10.8
AAAAGCUGGGUUGAGAGGGCGA [hsa-miR-320a] | 38.1 | -11.8 | 18.7
GAGUGGGGCUUCGACCCUAACC [hsa-miR-1296-3p] | 62.8 | -0.672 | 8.1
UCACUCCUCUCCUCCCGUCUU [hsa-miR-483-3p] | 45.3 | -26.9 | 16.3
CAAAUUCGUAUCUAGGGGAAUA [hsa-miR-10a-3p] | 84.8 | 38.1 | -15.8
UGGAAGACUAGUGAUUUUGUUGU [hsa-miR-7-5p] | 51.8 | -32.4 | 25.5
AGGGUGGGGCUGGAGGUGGGGCU [hsa-miR-6756-5p] | 42 | -11 | 3.98
AGAGGCUUUGUGCGGAUACGGGG [hsa-miR-3188] | 29.7 | -26 | 33.1
ACUCAAAAUGGGGGCGCUUUCC [hsa-miR-373-5p] | 83.7 | 34.3 | -11.8
UAACGCAUAAUAUGGACAUGU [hsa-miR-3912] | 71.2 | 27.3 | -23.9
UCCCUGGAGUUUCUUCUU [hsa-miR-4308] | 53.7 | 27.5 | -7.67
UGCUAUGCCAACAUAUUGCCAU [hsa-miR-31-3p] | 34.2 | -33.1 | 27.9
UUCUCAAGAGGGAGGCAAUCAU [hsa-miR-514b-5p] | 43.1 | 36.5 | -22.9
UGGGAGGGGAGAGGCAGCAAGCA [hsa-miR-4728-5p] | 7 | -29.9 | 46

Sequence | percent viability [1] [%] | 5+ nucleoli phenotype percent effect [2] [%] | one-nucleolus phenotype percent effect [3] [%]
AAGCAUUCUUUCAUUGGUUGG [hsa-miR-1179] | 98.7 | 0.87 | 1.48
GGGAUAUGAAGAAAAAU [hsa-miR-3201] | 59.6 | 40.5 | -15.6
UCAGGCAAAGGGAUAUUUACAGA [hsa-miR-4742-5p] | 45.1 | 6.44 | -11.1
GCCCGCGUGUGGAGCCAGGUGU [hsa-miR-1471] | 97.1 | 49.2 | -18.2
AGCUCGGUCUGAGGCCCCUCAGU [hsa-miR-423-3p] | 56.6 | -11.8 | 19.5
CGGGGGCGGGGCCGAAGCGCG [hsa-miR-1237-5p] | 85.4 | 45.4 | -22
CAAGCUUGUAUCUAUAGGUAUG [hsa-miR-100-3p] | 77.2 | 19.2 | -5.48
UGCAUCAGGCCAGAAGACAUGAG [hsa-miR-4711-5p] | 23.9 | -36.8 | 12.6
AGGGACUGCCUUAGGAGAAAGUU [hsa-miR-3199] | 57.4 | 42.9 | -15.3
UUUUGCAUGACCCUGGGAGUAGG [hsa-miR-3680-3p] | 51 | -18.3 | 11.5
UGGGAGCCAUGAGGGUCUGUGC [hsa-miR-6827-5p] | 15.6 | -1.65 | 26.3
CCGGGGCAGAUUGGUGUAGGGUG [hsa-miR-5090] | 82 | 24.7 | -10.2
UCCCCUCCACUUUCCUCCUAG [hsa-miR-6887-3p] | 33.5 | -13.1 | -0.315
CUCAUCUGCAAAGAAGUAAGUG [hsa-miR-452-3p] | 21.6 | -40.5 | 48.1
ACAAAAAAAAAAGCCCAACCCUUC [hsa-miR-3613-3p] | 91.6 | 16.2 | -10.2
UGUCAGUUUGUCAAAUACCCCA [hsa-miR-223-3p] | 86.9 | 7.19 | -4.68
AUCUGUCUCGAUUGUUUCCAG [hsa-miR-6888-3p] | 110 | 6.29 | 23.5
CUAUACGGCCUCCUAGCUUUCC [hsa-let-7e-3p] | 45 | 7.57 | -18.7
UCGGGCGCAAGAGCACUGCAGU [hsa-miR-6499-5p] | 43.5 | -9.6 | 0.719
